Common to all, as to details: both partners purified
The target in assay [1] is T1, Par complex (his-Par-6, aPKC) (Drosophila, UniProt O97111 1-351; A1Z9X0 1-606).
T1 construct: Par-6, Drosophila, residues 1-351; atypical protein kinase C (aPKC), Drosophila, residues 1-606; Construct as in PMID 32084408; also called full Par complex; source: HEK 293F, transfected (pCMV), purified (Ni-NTA or cobalt resin, Source Q anion exchange)
T1 sequence (looked up) 1: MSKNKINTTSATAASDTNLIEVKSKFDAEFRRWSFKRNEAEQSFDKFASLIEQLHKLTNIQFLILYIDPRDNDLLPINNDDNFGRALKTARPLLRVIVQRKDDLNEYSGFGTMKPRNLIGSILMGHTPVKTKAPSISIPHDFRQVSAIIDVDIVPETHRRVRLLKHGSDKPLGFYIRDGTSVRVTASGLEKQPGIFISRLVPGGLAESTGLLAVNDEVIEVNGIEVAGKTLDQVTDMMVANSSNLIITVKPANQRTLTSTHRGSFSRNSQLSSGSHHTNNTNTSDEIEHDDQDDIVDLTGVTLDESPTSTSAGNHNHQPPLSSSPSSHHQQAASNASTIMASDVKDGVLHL
T1 sequence (looked up) 2: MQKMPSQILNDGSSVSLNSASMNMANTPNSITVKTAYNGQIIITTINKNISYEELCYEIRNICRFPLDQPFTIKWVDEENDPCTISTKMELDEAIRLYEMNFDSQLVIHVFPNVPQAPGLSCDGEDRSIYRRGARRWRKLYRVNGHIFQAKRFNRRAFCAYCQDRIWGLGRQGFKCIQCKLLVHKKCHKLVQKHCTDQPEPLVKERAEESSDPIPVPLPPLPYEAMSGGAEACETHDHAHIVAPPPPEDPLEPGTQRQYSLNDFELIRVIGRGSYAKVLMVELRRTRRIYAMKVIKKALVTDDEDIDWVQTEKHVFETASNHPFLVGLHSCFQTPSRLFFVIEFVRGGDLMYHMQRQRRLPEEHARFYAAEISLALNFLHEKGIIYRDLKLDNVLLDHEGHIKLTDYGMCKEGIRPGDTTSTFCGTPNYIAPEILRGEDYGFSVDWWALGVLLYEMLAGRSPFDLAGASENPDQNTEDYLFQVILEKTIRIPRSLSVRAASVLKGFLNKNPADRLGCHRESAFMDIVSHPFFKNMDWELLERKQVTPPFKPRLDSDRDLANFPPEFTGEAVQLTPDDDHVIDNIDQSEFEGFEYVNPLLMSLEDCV
Put plainly: supernatant depletion assay; GST-fused protein on glutathione agarose resin (solid phase, 'ligand'); soluble protein ('receptor') left in the supernatant at equilibrium quantified on a Coomassie gel; 1 h at 20 °C; 10 mM Hepes pH 7.5, 100 mM NaCl, 1 mM DTT, 200 μM ATP, 5 mM MgCl2, 0.1% Tween-20; single-site equation; 'apparent' for Par-3 variants that could bind more than one Par complex; ATP replaced with ADP in one ….

The target in assay [2] is T2, aPKC KD-PBM (Drosophila, UniProt A1Z9X0 259-606).
T2 construct: From pBH; also called his aPKC kinase domain-PBM; aPKC kinase domain–PBM; source: E. coli BL21 (DE3), his-purified (Ni-NTA) partially under denaturing conditions (8 M urea)
T2 sequence (looked up): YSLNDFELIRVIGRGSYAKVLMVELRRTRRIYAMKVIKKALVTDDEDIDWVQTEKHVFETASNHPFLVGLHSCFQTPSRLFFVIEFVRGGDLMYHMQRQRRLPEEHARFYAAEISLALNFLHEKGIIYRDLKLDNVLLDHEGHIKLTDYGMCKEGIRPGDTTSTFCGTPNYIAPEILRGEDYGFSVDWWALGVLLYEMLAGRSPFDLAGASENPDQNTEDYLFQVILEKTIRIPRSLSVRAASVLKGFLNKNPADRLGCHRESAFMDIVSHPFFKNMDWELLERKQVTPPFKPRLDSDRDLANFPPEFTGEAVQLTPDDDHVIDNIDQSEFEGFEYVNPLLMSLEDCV
Described as above.

Assay [3] concerns the target T2, aPKC KD-PBM. Put plainly: pull-down; competition: GST-Par-3 PDZ2 or PDZ3 on glutathione resin with aPKC KD-PBM and the other PDZ domain as soluble competitor; room temperature, 30 to 60 min; 10 mM Hepes pH 7.5, 100 mM NaCl, 1 mM DTT, 200 μM ATP, 5 mM MgCl2, 0.1% Tween-20; Coomassie gel.
Assay [4] addresses T1, Par complex (his-Par-6, aPKC). Put plainly: supernatant depletion assay; MBP-Par-3 (C-terminal his-tag, his-purified) on amylose resin (solid phase); soluble protein left in the supernatant quantified on a Coomassie gel; 10 min at 20 °C; 10 mM Hepes pH 7.5, 100 mM NaCl, 1 mM DTT, 200 μM ATP, 5 mM MgCl2, 0.1% Tween-20; 'apparent'.

B1: GST-Par-3 BR-PDZ2 (domain or fragment, Drosophila, UniProt O96782 426-533, looked up)
chain: PVGTSLQVANTRKLGRKIQIMLKKGPNGLGFSVTTRDNPAGAHCPIYIKNILPRGAAIEDGRLKPGDRLLEVDGTPMTGKTQTDVVAILRGMPAGATVRIVVSRQQEL
notes: Par-3 (Bazooka), Drosophila, residues 426-533 (basic region and PDZ2); From pGEX
With B1, the binding result (in assay [1]; with aPKC KD-PBM [2]) was “binds” each time.

B2: GST-Par-3 PDZ3 (domain or fragment, Drosophila, UniProt O96782 616-741, looked up)
chain: HSREELTLHIPVHDTEKAGLGVSVKGKTCSNLNASGSSASSGSNGLMKHDGDLGIFVKNVIHGGAASRDGRLRMNDQLLSVNGVSLRGQNNAEAMETLRRAMVNTPGKHPGTITLLVGRKILRSAS
notes: Par-3 (Bazooka), Drosophila, residues 616-741; From pGEX; also called GST fused Par-3 PDZ3
For B2, the binding result (in assay [1]; in the assay with aPKC KD-PBM [2]) was “binds” throughout.

B3: Par-3 PDZ3 (his-purified, soluble) (domain or fragment, Drosophila, UniProt O96782 616-741, looked up)
chain: HSREELTLHIPVHDTEKAGLGVSVKGKTCSNLNASGSSASSGSNGLMKHDGDLGIFVKNVIHGGAASRDGRLRMNDQLLSVNGVSLRGQNNAEAMETLRRAMVNTPGKHPGTITLLVGRKILRSAS
notes: Par-3 (Bazooka), Drosophila, residues 616-741; From pET19; source: E. coli BL21 (DE3), his-purified
Take B3: the binding result with aPKC KD-PBM [3] is recorded as “binds”.

B4: GST-Par-3 PDZ1-2 (domain or fragment, Drosophila, UniProt O96782 309-533, looked up)
chain: DGEMLLIINEYGSPLGLTALPDKEHGGGLLVQHVEPGSRAERGQLRRDDRILEINGIKLIGLTESQVQEQLRRALESSELRVRVLRGDRNRRQQRDSKVADMVEVATVSPTRKPHAAPVGTSLQVANTRKLGRKIQIMLKKGPNGLGFSVTTRDNPAGAHCPIYIKNILPRGAAIEDGRLKPGDRLLEVDGTPMTGKTQTDVVAILRGMPAGATVRIVVSRQQEL
notes: Par-3 (Bazooka), Drosophila, residues 309-533; From pGEX
Take B4: the binding result (in assay [1]; in the assay with aPKC KD-PBM [2]) was “binds” in each case.

B5: GST-Par-3 PDZ2-3 (domain or fragment, Drosophila, UniProt O96782 444-741, looked up)
chain: QIMLKKGPNGLGFSVTTRDNPAGAHCPIYIKNILPRGAAIEDGRLKPGDRLLEVDGTPMTGKTQTDVVAILRGMPAGATVRIVVSRQQELAEQADQPAEKSAGVAVAPSVAPPAVPAAAAPAPPIPVQKSSSARSLFTHQQQSQLNESQHFIDAGSESAASNDSLPPSSNSWHSREELTLHIPVHDTEKAGLGVSVKGKTCSNLNASGSSASSGSNGLMKHDGDLGIFVKNVIHGGAASRDGRLRMNDQLLSVNGVSLRGQNNAEAMETLRRAMVNTPGKHPGTITLLVGRKILRSAS
notes: Par-3 (Bazooka), Drosophila, residues 444-741; From pGEX
In the case of B5, the binding result (in assay [1]; with aPKC KD-PBM [2]) was “binds” each time.

B6: GST-Par-3 PDZ1-3 (domain or fragment, Drosophila, UniProt O96782 309-741, looked up)
chain: DGEMLLIINEYGSPLGLTALPDKEHGGGLLVQHVEPGSRAERGQLRRDDRILEINGIKLIGLTESQVQEQLRRALESSELRVRVLRGDRNRRQQRDSKVADMVEVATVSPTRKPHAAPVGTSLQVANTRKLGRKIQIMLKKGPNGLGFSVTTRDNPAGAHCPIYIKNILPRGAAIEDGRLKPGDRLLEVDGTPMTGKTQTDVVAILRGMPAGATVRIVVSRQQELAEQADQPAEKSAGVAVAPSVAPPAVPAAAAPAPPIPVQKSSSARSLFTHQQQSQLNESQHFIDAGSESAASNDSLPPSSNSWHSREELTLHIPVHDTEKAGLGVSVKGKTCSNLNASGSSASSGSNGLMKHDGDLGIFVKNVIHGGAASRDGRLRMNDQLLSVNGVSLRGQNNAEAMETLRRAMVNTPGKHPGTITLLVGRKILRSAS
notes: Par-3 (Bazooka), Drosophila, residues 309-741; From pGEX; also called Par-3 fragment containing its three PDZ domains
B6: the binding result in assay [1] is reported as “binds”.

B7: GST-Par-3 BR-PDZ2-3 (domain or fragment, Drosophila, UniProt O96782 426-741, looked up)
chain: PVGTSLQVANTRKLGRKIQIMLKKGPNGLGFSVTTRDNPAGAHCPIYIKNILPRGAAIEDGRLKPGDRLLEVDGTPMTGKTQTDVVAILRGMPAGATVRIVVSRQQELAEQADQPAEKSAGVAVAPSVAPPAVPAAAAPAPPIPVQKSSSARSLFTHQQQSQLNESQHFIDAGSESAASNDSLPPSSNSWHSREELTLHIPVHDTEKAGLGVSVKGKTCSNLNASGSSASSGSNGLMKHDGDLGIFVKNVIHGGAASRDGRLRMNDQLLSVNGVSLRGQNNAEAMETLRRAMVNTPGKHPGTITLLVGRKILRSAS
notes: Par-3 (Bazooka), Drosophila, residues 426-741; From pGEX
Consider B7, for which the binding result (in assay [1]; in the assay with aPKC KD-PBM [2]) was “binds” in each case.

B8: GST-Par-3 PDZ2 (domain or fragment, Drosophila, UniProt O96782 444-533, looked up)
chain: QIMLKKGPNGLGFSVTTRDNPAGAHCPIYIKNILPRGAAIEDGRLKPGDRLLEVDGTPMTGKTQTDVVAILRGMPAGATVRIVVSRQQEL
notes: Par-3 (Bazooka), Drosophila, residues 444-533; From pGEX; also called GST fused Par-3 PDZ2
In the case of B8, the binding result (in assay [1]; with aPKC KD-PBM [2]) was “binds” each time.

B9: Par-3 PDZ2 (his-purified, soluble) (domain or fragment, Drosophila, UniProt O96782 444-533, looked up)
chain: QIMLKKGPNGLGFSVTTRDNPAGAHCPIYIKNILPRGAAIEDGRLKPGDRLLEVDGTPMTGKTQTDVVAILRGMPAGATVRIVVSRQQEL
notes: Par-3 (Bazooka), Drosophila, residues 444-533; From pET19; also called soluble PDZ2; source: E. coli BL21 (DE3), his-purified
With B9, the binding result in the assay with aPKC KD-PBM [3] is “binds”.

B10: MBP-Par-3 PDZ1-APMΔPDZ2 (domain or fragment, Drosophila, UniProt O96782 309-987, looked up)
chain: DGEMLLIINEYGSPLGLTALPDKEHGGGLLVQHVEPGSRAERGQLRRDDRILEINGIKLIGLTESQVQEQLRRALESSELRVRVLRGDRNRRQQRDSKVADMVEVATVSPTRKPHAAPVGTSLQVANTAEQADQPAEKSAGVAVAPSVAPPAVPAAAAPAPPIPVQKSSSARSLFTHQQQSQLNESQHFIDAGSESAASNDSLPPSSNSWHSREELTLHIPVHDTEKAGLGVSVKGKTCSNLNASGSSASSGSNGLMKHDGDLGIFVKNVIHGGAASRDGRLRMNDQLLSVNGVSLRGQNNAEAMETLRRAMVNTPGKHPGTITLLVGRKILRSASSSDILDHSNSHSHSHSNSSGGSNSNGSGNNNNSSSNASDNSGATVIYLSPEKREQRCNGGGGGGSAGNEMNRWSNPVLDRLTGGICSSNSAQPSSQQSHQQQPHPSQQQQQQRRLPAAPVCSSAALRNESYYMATNDNWSPAQMHLMTAHGNTALLIEDDAEPMSPTLPARPHDGQHCNTSSANPSQNLAVGNQGPPINTVPGTPSTSSNFDATYSSQLSLETNSGVEHFSRDALGRRSISEKHHA
notes: Par-3 (Bazooka), Drosophila, residues 309-987 with residues 437-533 deleted; From pMAL; construct as in PMID 32084408; not shown: MBP, N-terminal, kept; His tag, C-terminal, kept
For the molecule B10, in assay [4], the binding result is “binds”.

(Values after PMC9352551, “Energetic determinants of animal cell polarity regulator Par-3 interaction with the Par complex” (The Journal of Biological Chemistry, 2022).)
